The results in this text go back to PMC8510529 (mBio, 2021).

Experiment [1] addresses T1, recombinant soluble WNV NS1 protein (Native Antigen) (West Nile virus, strain of bought …, UniProt Q9Q6P4).
T1 construct: also called recombinant WNV NS1; recombinant, hexameric WNV NS1; source: bought: Native Antigen
In words: ELISA. The note with it: both partners purified.

Experiment [2] concerns the target T2, full-length WNV NS1 (strain 382-99), wild type, expressed in HEK293T cells (West Nile virus, New York 1999, strain …, UniProt Q9Q6P4).
T2 construct: also called WT NS1; WT WNV NS1; source: HEK293T, transfected (pFM-A1.2), on fixed cells
In words: flow cytometry on cells. The note with it: one partner purified.

The target of experiment [3] is T3, JEV NS1 protein (Native Antigen) (Japanese encephalitis virus, strain not …, UniProt P27395).
T3 construct: source: bought: Native Antigen
In words: ELISA. The note with it: both partners purified.

The target of experiment [4] is T4, TBEV NS1 protein (Native Antigen) (Tick-borne encephalitis virus, strain …, UniProt P14336).
T4 construct: source: bought: Native Antigen
Nature of the experiment: ELISA. Particulars: both partners purified.

Experiment [5] addresses T5, DENV2 NS1 protein (Native Antigen) (Dengue virus type 2, strain  …, UniProt P29990).
T5 construct: source: bought: Native Antigen
In words: ELISA. The note with it: both partners purified.

T3 sequence (P27395 795-1146): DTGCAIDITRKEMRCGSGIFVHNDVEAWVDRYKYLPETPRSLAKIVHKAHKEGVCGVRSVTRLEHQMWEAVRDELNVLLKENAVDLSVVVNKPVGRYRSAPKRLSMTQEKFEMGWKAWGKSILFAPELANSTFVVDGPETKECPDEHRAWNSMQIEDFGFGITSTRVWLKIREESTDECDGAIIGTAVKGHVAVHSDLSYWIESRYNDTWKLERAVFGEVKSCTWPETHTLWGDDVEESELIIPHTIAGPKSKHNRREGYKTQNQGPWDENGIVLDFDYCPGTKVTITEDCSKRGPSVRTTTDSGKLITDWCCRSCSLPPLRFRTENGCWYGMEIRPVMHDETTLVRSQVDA
T1 sequence (Q9Q6P4 792-1143): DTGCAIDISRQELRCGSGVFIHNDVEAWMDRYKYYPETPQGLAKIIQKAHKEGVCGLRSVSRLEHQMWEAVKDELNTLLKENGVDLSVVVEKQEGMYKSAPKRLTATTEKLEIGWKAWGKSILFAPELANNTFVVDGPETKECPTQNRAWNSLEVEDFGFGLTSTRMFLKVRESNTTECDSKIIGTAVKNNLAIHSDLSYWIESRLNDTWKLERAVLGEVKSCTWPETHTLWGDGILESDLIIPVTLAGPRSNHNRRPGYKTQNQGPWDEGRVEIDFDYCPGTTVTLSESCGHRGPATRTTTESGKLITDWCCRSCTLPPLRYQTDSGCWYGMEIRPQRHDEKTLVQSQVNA
T2 sequence (Q9Q6P4 792-1143): as above
T4 sequence (P14336 777-1128): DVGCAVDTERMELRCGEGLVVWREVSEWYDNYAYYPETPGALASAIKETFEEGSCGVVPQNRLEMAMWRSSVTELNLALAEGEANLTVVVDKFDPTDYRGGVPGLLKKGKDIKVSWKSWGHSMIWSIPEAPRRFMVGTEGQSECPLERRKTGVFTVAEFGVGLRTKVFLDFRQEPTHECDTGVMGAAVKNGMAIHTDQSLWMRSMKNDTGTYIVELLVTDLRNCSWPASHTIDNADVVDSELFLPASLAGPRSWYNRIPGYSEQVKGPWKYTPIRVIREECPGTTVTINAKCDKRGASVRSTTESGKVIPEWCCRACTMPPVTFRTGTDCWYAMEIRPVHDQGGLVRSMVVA
T5 sequence (P29990 776-1127): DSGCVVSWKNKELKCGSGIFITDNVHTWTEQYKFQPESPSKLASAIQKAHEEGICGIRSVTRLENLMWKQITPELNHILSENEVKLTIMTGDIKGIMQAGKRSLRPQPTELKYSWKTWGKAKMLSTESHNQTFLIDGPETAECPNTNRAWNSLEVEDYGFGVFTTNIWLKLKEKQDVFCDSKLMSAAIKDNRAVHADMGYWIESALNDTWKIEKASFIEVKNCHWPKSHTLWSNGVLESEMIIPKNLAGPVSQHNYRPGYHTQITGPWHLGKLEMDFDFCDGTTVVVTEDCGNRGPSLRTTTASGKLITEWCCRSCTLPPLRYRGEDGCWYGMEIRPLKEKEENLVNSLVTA

B1: WNV-113 (antibody, V domains shown)
VH: QITLKESGPTLVKPTQTLTVTCTFSGFSLNTNGVGVGWIRQPPGKALEWLALIYWDDVKRYRPSLESRLTITKDTSKNQVVLTMTDMDPVDTGTYYCAHRFHSRGWYTFDYWGQGTRVTVSS
VL: SYVLTQPPSVSVAPGQTARITCGGNNIGGKNVHWYQQKPGQAPVLVVYDDNDRPSGIPERFSGSNSGNTATLTISRVEAGDEADFYCQVWDSNSEHVVFGGGTKLTVL
Take B1: the binding result in experiment [1] and in experiment [2] was “binds” throughout.

B2: WNV-116 (antibody, V domains shown)
VH: QMQLVESGGGVVQPGRSLRLSCVASGFNFKTYVMNWVRQAPGKGLEWVAVILSDGDNKYYADSVKGRFTISRDNSKNTLFLQMDSLRADDTAVYYCTRVPHCSTSSCYKEYYNYYMDVWGKGTTVSVSS
VL: EIVLTQSPATLSLSPGDRATLSCRASQSLSTSLAWYQQKPGQAPRLVIYDASNRAADIPARFSGSGSGTDFTLTIRSLEPEDFAVYYCQQRSNWPPRYTFGQGTKLEIK
Turning to B2, the binding result in experiment [1] and in experiment [2] was “binds” each time.

B3: WNV-103 (antibody, V domains shown)
VH: EVQLVESGGGLLQPGGSLRLSCAASGFSFSRYWMHWVRQAPGKGLIWVSRINTDGSTTIYADSVKGRFTVSRDNAKNTLFLQMSRLRPEDTAVYYCARVIASPGISYGMDVWGHGTTVTVSS
VL: SHELTQPPSVSVSPGQTATITCSGDALPKQYAYWYQQKSGQAPVLVIYKDTKRPSGIPERFSGSSSGTVVTLTISGVQAEDEADYYCQSADISSTYVVFAGGTKLTVL
With B3, the binding result in experiment [1] and in experiment [2] was “binds” throughout.

B4: WNV-96 (antibody, V domains shown)
VH: QVQLVQSGAEVKKPGASVKVSCRPSGYIFTNYYIEWVRQAPGQGLEWMGIINPSGGKTTYAQKFQGRVTMTSDTSTSTVYMELSSLRSDDTAVYYCARDGNGSDYWGQGTRVTVSS
VL: DVQMTQSPSSLSASVGDRVTITCRASQNINNYLNWYQQKPGRAPKLLIYATSNLESGVPSRFSGSRSGADFTLTISSLQPEDFASYYCQQSYNAPRTFGHGTKVEIK
notes: also called IgG1-WT variant of WNV-96
Consider B4, for which the binding result in experiment [1] and in experiment [2] was “binds” in each case.

B5: WNV-95 (antibody, V domains shown)
VH: QVQLQESGPGLVKPSQTLSLTCTVSGGSINSGAFYWSWIRQHPGKGLEWIGFIYYSGSTYYNPSLRSRVTISVDTSKNQFSLKLISVTAADTAVYYCARDRPDDPGPYFDSWGRGTLVTVSS
VL: QSALTQPASVSGSPGQSITISCTGTSNDVGRYNSVSWYQQHPGNAPKLMIYDVSNRPSGVSNRFSGSKSGNTASLTISGLQAEDEADYYCSSYTSSSSVVFGGGTKLTVL
As to B5, the binding result in experiment [1] and in experiment [2] was “binds” throughout.

B6: WNV-120 (antibody, V domains shown)
VH: KVQLEESGGGWVKPGRSLRLSCGASGFRFDDYAMHWVRQVPGKGLEWVSGISWDSDGIGYADSVKGRFTISRDNAKNSLFLQMNSLRAEDTALYYCVKDKGWLIQGRFDSWGQGIRVTVSS
VL: DIVVTQSPDSLAVSLGERVTINCKTSQSVLYTFNNQNYLAWYQQKSGQPPKLLIYWASTRESGVPDRFSGSGSGTDFTLTISRLQAEDVAVYYCQQFYISPPGTFGQGTKVEIK
For B6, the binding result in experiment [3], in experiment [1] and in experiment [2] was “binds” each time.

B7: WNV-99 (antibody, V domains shown)
VH: QVRLVESGGGVVQPGRSLRLSCAASGFTLSSYGMHWVRQAPGKGLEWVAIISYDGSDKYYADSVKGRFTISRDNSKNTLYLQMNSLRPEDTAMYYCAKPDRSSSPFAHWGQGTLVTVSS
VL: SYELTQPPSVSVSPGQTARITCSGDALPKQYAFWYQQKPGQTPVVVISKDSERPSGIPERFSGSSSGTTVTLTISGVQAEDEADYYCQSADSSGIWVFGGGTKLTVL
For B7, the binding result in experiment [3], in experiment [4], in experiment [1] and in experiment [2] was “binds” throughout.

B8: WNV-98 (antibody, V domains shown)
VH: QVQLVESGGGLVKPGGSLRLSCAASGFPFTNYYMSWIRQAPGKGLEWISYITSRGDTAYYADSVKGRFTVARDNSKNSLYLQMNSLRAEDTAMYFCARGGDDYADSWGQGILVTVSS
VL: EIVLTQSPATLPLSPGERATLSCRASQSINTNLAWYQQKPGQAPRLLIYETSHRASAIPARFSGSGSGTDFTLKISSLEPEDLAIYYCQQYRNWPQTFGQGTRLEIK
Turning to B8, the binding result in experiment [1] and in experiment [2] was “binds” in each case.

B9: WNV-100 (antibody, V domains shown)
VH: QLQLQESGSGLVKPSQTLSLTCTVSGDSIGSGGFSWTWIRQPPGKGLEWIGNIYHSGGTYYNPSLKSRVTISIDNSTHFSLKLSSVTAADSAVYYCARDRGMVIKRRPWSYGLDVWGQGTTVSVSS
VL: QSVLTQPPSASGTPGQRVTISCSGGSSNIGSNSVSWYQHLPRTAPKLLIYSNNQRSSGVPDRFSGSKSGTSASLAISGLQSDDEADYYCAAWDDSLHVLFGGGTKLTVL
Consider B9, for which the binding result in experiment [3], in experiment [4], in experiment [5], in experiment [1] and in experiment [2] was “binds” throughout.

B10: WNV-104 (antibody, V domains shown)
VH: QVQLVESGGGVVQPGTSLRLSCAASGFTFRSYGMHWVRQAPGKGLEWVALIWYDGSNKYYADSVKGRFTISRDNSRSTLYLQMNSLRAEDTAVYYCARDLGEYDSLVGPLYTARLGYWGQGTLVTVSS
VL: DIQMTQSPSSLSASVGDRVTMTCQASQDISNYLNWYQQKPGKAPNLLIYDASNLETGVPSRFSGSGSGTDFTFTISSLQPEDIATYYCQQYDNLPITFGQGTRLEIK
For the molecule B10, the binding result in experiment [1] and in experiment [2] was “binds” throughout.

B11: WNV-117 (antibody, V domains shown)
VH: EVQLLESGGGLVQPGGSLRLSCAASGFTFSNYAMSWVRQAPGKGLEWVSSISDRGDYTYYADSVKGRFTISRDKSRNTLYLQIKSLRAEDTAVYYCAKCWGRGSYSGIPD
VL: DIQMTQSPSSLSASVGDRVTISCQASHDITNFLNWYQQKPGKAPKLLIYDASNLEAGVPSRFSGSGSGTDFTFTISSLQPEDIATYYCQQYDNLFITFGQGTRLEIK
As to B11, the binding result in experiment [1] and in experiment [2] was “binds” throughout.

B12: WNV-97 (antibody, V domains shown)
VH: QVQLVESGGGLVQPGGSLRVSCAASGFTFSTYEMNWVRQAPGKGLEWVSYISNSGTIIYYADSVKGRFTISRDNAKNSLYLQMNSLRAEDTAIYYCGRVLRDRDVVAGPPARVWDYYYYGMDVWGQGTTVTVSS
VL: DIVMTQSPLSLPVTPGEPASISCRSSQSLLHSSGYNCLDWYLQKPGQSPQLLIYLRSNRASGVPDRFSGSGSGTDFTLKISRVEAEDVGVYYCMQTLQTPWTFGQGTKVEIK
In the case of B12, the binding result in experiment [4] was “binds”.
